Test results taken from article PMC7641127 (2020).
No end group written: not given here.

T1: recombinant MCL1 (human, UniProt Q07820 1-350)
T1 chain: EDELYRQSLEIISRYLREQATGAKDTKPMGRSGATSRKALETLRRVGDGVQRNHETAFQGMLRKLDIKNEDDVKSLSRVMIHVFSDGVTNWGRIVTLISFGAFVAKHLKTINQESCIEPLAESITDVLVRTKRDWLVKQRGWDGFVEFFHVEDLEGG


Biological target: T1, recombinant MCL1
Test: FP

| IC50 | Binder |
| --- | --- |
| 1090 nM | DEDTYYLQVRGRENFEILMKLKESLELMELV-NH2 [p73TD-derived peptide β1α1] |
| 882 nM | RENFEILMKLKESLELMELVPQPLVDSYRQQQQLLQR [p73TD-derived peptide α1α2] |
| 2630 nM | RENFEILMKLKESLELMELV [p73TD-derived peptide α1] |
